Measurements: patent US20200207859A1 (priority 2017, published 2020)

B1: Conjugate A (anti-CD74 IgG-DBCO-PEG4-maytansine conjugate) (antibody, V domains shown)
VH: QVQLVESGGGVVQPGRSLRLSCAASGFNFSDYGMHWVRQAPGKGLEWVAVIWYDGSISYYADSVKGRFTISRDNSKNTLYLQMNSLRAEDTAVYYCARGGTVEHGAVYGTDVWGQGTTVTVSS
VL: DIQMTQSPSSVSASVGDRVTITCRASQGIGSWLAWYQQKPGKAPKLLIYAADRLQSGVPSRFSGSGSGTDFTLTISSLQPEDFATYYCQQYHTYPLTFGGGTKVEIK
modifications: here or on the partner: para-azidomethyl-L-phenylalanine (pAMF, residue 30) at heavy chain EU position 404 (constant region, outside SEQ ID NO 236), linked to DBCO-PEG4-maytansine
B2: Conjugate B (anti-CD74 IgG-PEG4-maytansine conjugate) (antibody, V domains shown)
VH: B1 VH
VL: B1 VL
modifications: here or on the partner: modified amino acid residue 30 (pAMF) according to Example 2, position not stated for this conjugate, linked to a PEG4-maytansine linker-payload
B3: Conjugate C (anti-CD74 IgG-val-cit-PAB-hemiasterlin conjugate) (antibody, V domains shown)
VH: B1 VH
VL: B1 VL
modifications: here or on the partner: modified amino acid residue 30 (pAMF) according to Example 2, position not stated for this conjugate, linked to val-cit-PAB-hemiasterlin

Legend:
ARD (MM) = assay: Cell killing assay (cell proliferation, Cell Titer-Glo); format: cell-based, human; settings: 72 hrs
Experimental: (§1) Cytotoxicity effects of the free drug linkers and conjugates were measured with a cell proliferation assay. A total of 12500 cells in a volume of 25 μl were seeded in a 384-well flat bottom white polystyrene plate on the day of assay. Free drug-linkers and conjugates were formulated at 2× starting concentration (1000 nM for free drug linkers and 100 nM for ADCs) in RPMI medium and filtered through MultiScreen HTS 96-Well Filter Plates (Millipore). Filter sterilized samples were serial diluted (1:3) under sterile conditions and added into treatment wells. Plates were cultured at 37° C. in a CO2 incubator for 72 hrs. For cell viability measurement, 30 μl of Cell Titer-Glo® reagent (Promega Corp.) was added into each well, and plates processed as per product instructions. Relative luminescence was measured on an ENVISION® plate reader (Perkin-Elmer; Waltham, Mass.). Relative luminescence readings were converted to % viability using untreated cells as controls. Data was fitted with non-linear regression analysis, using log(inhibitor) vs. response, variable slope, 4 parameter fit equation using GraphPad Prism. Data was expressed as % relative cell viability vs. dose of free drug-linker or conjugate in nM.

SU-DHL-6 (NHL) = assay: as above; format: cell-based, human; settings: 72 hrs
Experimental: as §1

ARP-1 (MM) = assay: as above; format: cell-based, human; settings: 72 hrs
Experimental: as §1

RPMI-8226 (MM) = assay: as above; format: cell-based; parameters: key to Cell Killing Activity Span: NK = no killing; NB = no binding; settings: 72 hrs
Experimental: as §1

K562 (CML) = assay: as above; format: cell-based; parameters: key to Cell Killing Activity Span: NK = no killing; NB = no binding; settings: 72 hrs
Experimental: as §1

OPM-2 (MM) = assay: as above; format: cell-based; parameters: key to Cell Killing Activity Span: NK = no killing; NB = no binding; settings: 72 hrs
Experimental: as §1

SUP-B15 (ALL) = assay: as above; format: cell-based; settings: 72 hrs
Experimental: as §1

JVM-13 (CLL) = assay: as above; format: cell-based; settings: 72 hrs
Experimental: as §1

BDCM (AML) = assay: as above; format: cell-based; settings: 72 hrs
Experimental: as §1

RPMI-6666 (HL) = assay: as above; format: cell-based; settings: 72 hrs
Experimental: as §1

CD74 (human), P04233 = assay: cell-based or functional assay
Chain of CD74 (human), P04233 (P04233 whole entry): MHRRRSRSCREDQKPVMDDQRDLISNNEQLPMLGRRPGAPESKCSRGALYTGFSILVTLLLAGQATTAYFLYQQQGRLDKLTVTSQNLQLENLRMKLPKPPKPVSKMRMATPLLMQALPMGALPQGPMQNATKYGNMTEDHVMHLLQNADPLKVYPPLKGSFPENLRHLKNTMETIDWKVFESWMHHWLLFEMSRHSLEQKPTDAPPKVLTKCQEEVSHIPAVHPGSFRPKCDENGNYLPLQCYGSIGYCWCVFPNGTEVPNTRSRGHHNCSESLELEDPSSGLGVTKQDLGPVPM

| Molecule | cell killing IC50, ARD (MM) cells (CD74 (human), P04233) [nM] | cell killing IC50, ARP-1 (MM) cells (CD74 (human), P04233) [nM] | cell killing IC50, BDCM (AML) cells (CD74 (human), P04233) [nM] | cell killing IC50, JVM-13 (CLL) cells (CD74 (human), P04233) [nM] | cell killing IC50, RPMI-6666 (HL) cells (CD74 (human), P04233) [nM] | cell killing IC50, SU-DHL-6 (NHL) cells (CD74 (human), P04233) [nM] | cell killing IC50, SUP-B15 (ALL) cells (CD74 (human), P04233) [nM] | cell killing Span, ARD (MM) cells (CD74 (human), P04233) [%] | cell killing Span, ARP-1 (MM) cells (CD74 (human), P04233) [%] | cell killing Span, BDCM (AML) cells (CD74 (human), P04233) [%] | cell killing Span, JVM-13 (CLL) cells (CD74 (human), P04233) [%] | cell killing Span, RPMI-6666 (HL) cells (CD74 (human), P04233) [%] | cell killing Span, SU-DHL-6 (NHL) cells (CD74 (human), P04233) [%] | cell killing Span, SUP-B15 (ALL) cells (CD74 (human), P04233) [%] | cell killing Span, RPMI-8226 (MM) cells (CD74 (human), P04233) [%] | other results |
| --- | --- | --- | --- | --- | --- | --- | --- | --- | --- | --- | --- | --- | --- | --- | --- | --- |
| COc1cc2cc(c1Cl)N(C)C(=O)C[C@H](OC(=O)[C@H](C)N(C)C(=O)CCCC(=O)N(C)CCOCCOCCOCCOCCC(=O)NCCC(=O)N1Cc3ccccc3C#Cc3ccccc31)[C@]1(C)O[C@H]1[C@H](C)[C@@H]1C[C@@](O)(NC(=O)O1)[C@H](OC)/C=C/C=C(/C)C2 [Free Linker-Drug, DBCO-PEG4-maytansine, reference compound] |  |  |  |  |  |  |  |  |  |  |  |  |  |  |  | Cell Killing Activity Span (ARD (MM)): 40%; Cell Killing Activity Span (SU-DHL-6 (NHL)): 98%; Cell Killing Activity Span (ARP-1 (MM)): 77%; Cell Killing Activity Span (RPMI-8226 (MM)): NK; Cell Killing Activity Span (K562 (CML)): NK; Cell Killing Activity Span (OPM-2 (MM)): NK; Cell Killing Activity Span (SUP-B15 (ALL)): 65%; Cell Killing Activity Span (JVM-13 (CLL)): 65%; Cell Killing Activity Span (BDCM (AML)): 76%; Cell Killing Activity Span (RPMI-6666 (HL)): 85% |
| B1 | 8.6 | 9 | 4.6 | 1.5 | 1 | 0.6 | 3 | 40 | 77 | 76 | 65 | 85 | 98 | 65 |  | cell killing EC50, HH T lymphoma cells, 120 h CellTiter-Glo (CD74 (human), P04233): 0.22 nM; cell killing EC50, HuT-78 T lymphoma cells, 120 h CellTiter-Glo (CD74 (human), P04233): 0.59 nM; cell killing EC50, My-La T lymphoma cells, 120 h CellTiter-Glo (CD74 (human), P04233): 0.54 nM; cell killing IC50, ARD (MM) cells, 72 h CellTiter-Glo (CD74 (human), P04233): 8.6 nM; cell killing IC50, ARP-1 (MM) cells, 72 h CellTiter-Glo (CD74 (human), P04233): 9 nM; cell killing IC50, BDCM (AML) cells, 72 h CellTiter-Glo (CD74 (human), P04233): 4.6 nM; cell killing IC50, JVM-13 (CLL) cells, 72 h CellTiter-Glo (CD74 (human), P04233): 1.5 nM; cell killing IC50, RPMI-6666 (HL) cells, 72 h CellTiter-Glo (CD74 (human), P04233): 1 nM; cell killing IC50, SU-DHL-6 (NHL) cells, 72 h CellTiter-Glo (CD74 (human), P04233): 0.6 nM; cell killing IC50, SUP-B15 (ALL) cells, 72 h CellTiter-Glo (CD74 (human), P04233): 3 nM; cell killing Span, ARD (MM) cells, 72 h CellTiter-Glo (CD74 (human), P04233): 38%; cell killing Span, ARP-1 (MM) cells, 72 h CellTiter-Glo (CD74 (human), P04233): 74%; cell killing Span, BDCM (AML) cells, 72 h CellTiter-Glo (CD74 (human), P04233): 74%; cell killing Span, HH T lymphoma cells, 120 h CellTiter-Glo (CD74 (human), P04233): 77%; cell killing Span, HuT-78 T lymphoma cells, 120 h CellTiter-Glo (CD74 (human), P04233): 72%; cell killing Span, JVM-13 (CLL) cells, 72 h CellTiter-Glo (CD74 (human), P04233): 58%; cell killing Span, My-La T lymphoma cells, 120 h CellTiter-Glo (CD74 (human), P04233): 73%; cell killing Span, RPMI-6666 (HL) cells, 72 h CellTiter-Glo (CD74 (human), P04233): 84%; cell killing Span, SU-DHL-6 (NHL) cells, 72 h CellTiter-Glo (CD74 (human), P04233): 98%; cell killing Span, SUP-B15 (ALL) cells, 72 h CellTiter-Glo (CD74 (human), P04233): 64% |
| B2 | 31 | 16 | 15 | 2 | 1.3 | 1.3 | 5.7 | 53 | 82 | 95 | 69 | 89 | 98 | 72 | 41 | cell killing IC50, RPMI-8226 (MM) cells (CD74 (human), P04233): 51 nM |
| B3 |  |  |  | 0.9 | 0.9 | 0.3 |  | 74 | 87 | 89 | 54 | 84 | 97 | 68 | 43 |  |
